# Measured values reported in patent publication US12427210B2, “Compounds comprising a fibroblast activation protein ligand and use thereof” (priority 2019, dated 2025).
# Bridge positions count the residues as written; N and C are the ends. * marks the point of attachment. Hexanoyl = CCCCCC(=O)*
# T1: Cathepsin F (Homo sapiens (Human)) (UniProt Q9UBX1)
# T1 sequence: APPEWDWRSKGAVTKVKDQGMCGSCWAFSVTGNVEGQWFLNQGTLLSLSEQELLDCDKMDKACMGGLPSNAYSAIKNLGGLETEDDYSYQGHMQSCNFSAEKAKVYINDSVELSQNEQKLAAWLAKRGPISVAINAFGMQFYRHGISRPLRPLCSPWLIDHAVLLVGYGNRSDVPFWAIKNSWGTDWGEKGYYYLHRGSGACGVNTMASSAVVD
# Target: human fibroblast activation protein (FAP) on human WI-38 fibroblasts (human)
# Experiment: competitive FACS binding on FAP-expressing WI-38 cells against 3 nM Cy5-labeled compound; category A = pIC50 values >8.0
# Conditions: remark: other sources report otherwise
row,Binder,pIC50 Category (FACS) [pIC50]
1,CPPTQFC (here or on the partner: N-terminal hexanoyl (Hex); Cys1 and Cys7 cyclised through tMeBn carrying CuDOTA-AET (copper(II) complex); free C-terminal acid (-OH)) [Hex-[Cys-(tMeBn(CuDOTA-AET))-Pro-Pro-Thr-Gln-Phe-Cys]-OH (3BP-4293)],> 8
2,CPPTQFC (here or on the partner: N-terminal hexanoyl (Hex); Cys1 and Cys7 cyclised through tMeBn carrying LuDOTA-AET (lutetium complex); free C-terminal acid (-OH)) [Hex-[Cys(tMeBn(LuDOTA-AET))-Pro-Pro-Thr-Gln-Phe-Cys]-OH (3BP-3624)],> 8
3,Hexanoyl-CPPTQFC-OH (bridge 1-7; not fully specified (bridges); printed as Hex-[Cys-(tMeBn(ZnDOTA-AET))-Pro-Pro-Thr-Gln-Phe-Cys]-OH; also: zinc complex (ZnDOTA) of 3BP-3554) [Hex-[Cys-(tMeBn(ZnDOTA-AET))-Pro-Pro-Thr-Gln-Phe-Cys]-OH (3BP-4343)],> 8
4,CPPTQFC (here or on the partner: N-terminal hexanoyl (Hex); Cys1 and Cys7 cyclised through tMeBn carrying InDOTA-AET (indium complex); free C-terminal acid (-OH)) [Hex-[Cys(tMeBn(InDOTA-AET))-Pro-Pro-Thr-Gln-Phe-Cys]-OH (3BP-3623)],> 8
5,CPPTQFC (here or on the partner: N-terminal hexanoyl (Hex); Cys1 and Cys7 cyclised through tMeBn carrying EuDOTA-AET (europium complex); free C-terminal acid (-OH)) [Hex-[Cys(tMeBn(EuDOTA-AET))-Pro-Pro-Thr-Gln-Phe-Cys]-OH (3BP-3662)],> 8
6,CPPTQFC (here or on the partner: N-terminal hexanoyl (Hex); Cys1 and Cys7 cyclised through tMeBn carrying GaDOTA-AET (gallium complex); free C-terminal acid (-OH)) [Hex-[Cys(tMeBn(GaDOTA-AET))-Pro-Pro-Thr-Gln-Phe-Cys]-OH (3BP-3949)],> 8

# Target: Recombinant human FAP (R&D systems, #3715-SE) (human)
# Experiment: not given
# Conditions: not given
# Sequence of Recombinant human FAP (R&D systems, #3715-SE) (human) (chain, as listed by the source limits assumed): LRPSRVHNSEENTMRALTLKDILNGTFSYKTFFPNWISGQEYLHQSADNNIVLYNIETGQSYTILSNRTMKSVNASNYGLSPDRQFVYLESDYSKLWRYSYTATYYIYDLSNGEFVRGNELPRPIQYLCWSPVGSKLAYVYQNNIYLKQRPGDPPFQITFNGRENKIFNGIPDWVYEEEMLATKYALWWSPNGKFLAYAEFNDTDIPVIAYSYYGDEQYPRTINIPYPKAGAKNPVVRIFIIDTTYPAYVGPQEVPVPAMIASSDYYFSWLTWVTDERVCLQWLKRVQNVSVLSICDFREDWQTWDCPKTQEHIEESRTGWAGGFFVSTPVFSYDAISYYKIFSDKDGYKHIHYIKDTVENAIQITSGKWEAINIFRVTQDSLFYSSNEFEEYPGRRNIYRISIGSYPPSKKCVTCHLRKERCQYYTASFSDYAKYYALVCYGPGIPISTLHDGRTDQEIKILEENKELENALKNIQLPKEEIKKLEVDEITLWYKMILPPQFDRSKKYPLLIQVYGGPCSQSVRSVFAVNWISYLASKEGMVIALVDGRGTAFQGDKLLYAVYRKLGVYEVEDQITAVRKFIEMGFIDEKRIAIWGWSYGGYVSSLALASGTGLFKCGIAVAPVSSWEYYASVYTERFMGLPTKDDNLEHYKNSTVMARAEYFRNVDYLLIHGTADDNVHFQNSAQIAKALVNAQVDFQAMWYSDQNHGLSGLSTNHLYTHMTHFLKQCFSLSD
row,Binder,pIC50 Category (Activity) [pIC50]
1,CPPTQFCD (N-terminal hexanoyl (Hex); Cys1 and Cys7 cyclised through tMeBn carrying InDOTA-PP (indium complex); C-terminal amide) [Hex-[Cys(tMeBn(InDOTA-PP))-Pro-Pro-Thr-Gln-Phe-Cys]-Asp-NH2 (3BP-3590)],> 8
2,CPPTQFCD (N-terminal hexanoyl (Hex); Cys1 and Cys7 cyclised through tMeBn carrying EuDOTA-PP (europium complex); C-terminal amide) [Hex-[Cys(tMeBn(EuDOTA-PP))-Pro-Pro-Thr-Gln-Phe-Cys]-Asp-NH2 (3BP-3661)],> 8
3,CPPTQFCD (N-terminal hexanoyl (Hex); Cys1 and Cys7 cyclised through tMeBn carrying LuDOTA-PP (lutetium complex); C-terminal amide) [Hex-[Cys(tMeBn(LuDOTA-PP))-Pro-Pro-Thr-Gln-Phe-Cys]-Asp-NH2 (3BP-3591)],> 8
4,CPPTQFCD (N-terminal hexanoyl (Hex); Cys1 and Cys7 cyclised through tMeBn carrying GaDOTA-PP (gallium complex); C-terminal amide) [Hex-[Cys(tMeBn(GaDOTA-PP))-Pro-Pro-Thr-Gln-Phe-Cys]-Asp-NH2 (3BP-3592)],> 8

# Target: KV channel
# Experiment: radioligand displacement, reference compound of the assay (Ki Ref)
# Conditions: not given
row,Binder,Ki [nM]
1,alpha -dendrotoxin (protein) QPRRKLCILHRNPGRCYDKIPAFYYNQKKKQCERFDWSGCGGNSNRFKTIEECRRTCIG,0.097

# Target: T1, Cathepsin F (Homo sapiens (Human))
# Experiment: not given
# Conditions: not given
row,Binder,"Percentage inhibition (%), Reference (% inhibition at 1 µM)"
1,Cystatin C (protein) SSPGKPPRLVGGPMDASVEEEGVRRALDFAVGEYNKASNDMYHSRALQVVRARKQIVAGVNYFLDVELGRTTCTKTQPNLDNCPFHDQPHLKRKAFCSFQIYAVPWQGTMTLSKSTCQDA,74
